Assay [1] concerns the target importin alpha 5, His-tagged (human, UniProt P52294 1-538). Nature of the assay: pull-down.
For assay [2], the target named is T1, importin alpha 3, His-tagged (human, UniProt O00629 1-521).
T1 sequence (looked up): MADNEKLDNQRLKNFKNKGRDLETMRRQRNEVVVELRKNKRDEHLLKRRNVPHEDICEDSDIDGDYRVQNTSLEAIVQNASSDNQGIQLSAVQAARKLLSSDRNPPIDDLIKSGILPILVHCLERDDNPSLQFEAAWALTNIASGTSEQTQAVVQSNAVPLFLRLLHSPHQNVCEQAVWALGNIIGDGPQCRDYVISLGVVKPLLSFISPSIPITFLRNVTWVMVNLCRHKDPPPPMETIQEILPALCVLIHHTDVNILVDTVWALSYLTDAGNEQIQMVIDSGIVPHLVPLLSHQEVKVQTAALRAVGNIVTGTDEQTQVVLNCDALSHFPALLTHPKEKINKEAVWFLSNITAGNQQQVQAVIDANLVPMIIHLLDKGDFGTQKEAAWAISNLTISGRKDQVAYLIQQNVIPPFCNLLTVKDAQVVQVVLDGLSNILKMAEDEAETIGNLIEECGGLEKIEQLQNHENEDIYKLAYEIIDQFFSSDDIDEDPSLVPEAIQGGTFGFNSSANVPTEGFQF
Nature of the assay: pull-down.

Sequence of importin alpha 5, His-tagged (P52294 whole entry): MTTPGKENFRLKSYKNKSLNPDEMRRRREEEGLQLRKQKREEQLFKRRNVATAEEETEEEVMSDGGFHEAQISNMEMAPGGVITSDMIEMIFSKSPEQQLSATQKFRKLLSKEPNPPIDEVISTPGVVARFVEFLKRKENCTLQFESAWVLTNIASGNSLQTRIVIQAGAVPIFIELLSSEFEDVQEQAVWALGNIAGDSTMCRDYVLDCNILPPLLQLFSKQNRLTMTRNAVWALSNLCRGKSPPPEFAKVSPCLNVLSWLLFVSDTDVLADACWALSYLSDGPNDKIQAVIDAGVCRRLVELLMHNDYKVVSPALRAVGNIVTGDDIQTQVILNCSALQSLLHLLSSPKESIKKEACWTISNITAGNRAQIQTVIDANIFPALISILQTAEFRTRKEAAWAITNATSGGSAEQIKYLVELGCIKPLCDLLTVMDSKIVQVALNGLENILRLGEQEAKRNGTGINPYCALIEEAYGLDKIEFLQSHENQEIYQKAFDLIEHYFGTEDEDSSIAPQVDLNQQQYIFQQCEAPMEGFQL

B1: GST-HPV16 E2 (natural protein)
chain: METLCQRLNVCQDKILTHYENDSTDLRDHIDYWKHMRLECAIYYKAREMGFKHINHQVVPTLAVSKNKALQAIELQLTLETIYNSQYSNEKWTLQDVSLEVYLTAPTGCIKKHGYTVEVQFDGDICNTMHYTNWTHIYICEEASVTVVEGQVDYYGLYYVHEGIRTYFVQFKDDAEKYSKNKVWEVHAGGQVILCPTSVFSSNEVSSPEIIRQHLANHPAATHTKAVALGTEETQTTIQRPRSEPDTGNPCHTTKLLHRDSVDSAPILTAFNSSHKGRINCNSNTTPIVHLKGDANTLKCLRYRFKKHCTLYTAVSSTWHWTGHNVKHKSAIVTLTYDSEWQRDQFLSQVKIPKTITVSTGFMSI
Regarding B1, the binding result in assay [1] is “binds”.

B2: GST-HPV11 E2 (natural protein)
chain: MEAIAKRLDACQDQLLELYEENSIDIHKHIMHWKCIRLESVLLHKAKQMGLSHIGLQVVPPLTVSETKGHNAIEMQMHLESLAKTQYGVEPWTLQDTSYEMWLTPPKRCFKKQGNTVEVKFDGCEDNVMEYVVWTHIYLQDNDSWVKVTSSVDAKGIYYTCGQFKTYYVNFNKEAQKYGSTNHWEVCYGSTVICSPASVSSTVREVSIAEPTTYTPAQTTAPTVSACTTEDGVSAPPRKRARGPSTNNTLCVANIRSVDSTINNIVTDNYNKHQRRNNCHSAATPIVQLQGDSNCLKCFRYRLNDKYKHLFELASSTWHWASPEAPHKNAIVTLTYSSEEQRQQFLNSVKIPPTIRHKVGFMSLHLL
Take B2: the binding result in assay [2] and in assay [1] was “binds” in each case.
